± gives the uncertainty stated by the source.
Assay: self-splicing fitness, log relative to wild type (ln ratio); higher = more splicing; Tetrahymena group I intron in knt gene, E. coli kanamycin selection, DiMSum; sequences stand for … in CUCUCU…GGAGGGAAAAGUUAUCAGGCAUGCACCUGGUAGCUAGUCUUUAAACCAAUAGAUUGCAUCGGUUUAAAAGGCAAGACCGUCAAAUUGCGGGAAAGGGGUCAACAGCCGUUCAGUACCAAGUCUCAGGGGAAACUUUGAGAUGGCCUUGCAAAGGGUAUGGUAAUAAGCUGACGGACAUGGUCCUAACCACGCAGCCAAGUCCUAAGUCAACAGAUCUUCUGUUGAUAUGGAUGCAGUUCACAGACUAAAUGUCGGUCGGGGAAGAUGUAUUCUUCUCAUAAGAUAUAGUCGGACCUCUCCUUAAUGGGAGCUAGCGGAUGAAGUGAUGCAACACUGGAGCCGCUGGGAACUAAUUUGUAUGCGAAAGUAUAUUGAUUAGUUUUGGAGUACUCGUGGUCG
Method in brief: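 The eight P1ex-region nucleotides of an intron in the knt kanamycin-resistance gene on pET-22b(+) were all randomised and the library put into E. coli BL21(DE3). Six replicate transformations were grown overnight at 37°C or 30°C on LB agar with or without 25 μg/mL kanamycin, together with 100 μg/mL carbenicillin, 50 μM IPTG and 0.2% rhamnose. Colonies were pooled and amplicon-sequenced on an Illumina HiSeq 2500. Fitness from DiMSum is the error-weighted combination of wild-type-normalised replicate fold changes, kanamycin over none.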

Sequence | self-splicing fitness (ln) (30 °C) | self-splicing fitness (ln) (37 °C)
GCUAAGCAAUAUUACGGGAU | -2.86 ± 0.1 | -0.821 ± 0.081
GCUAAGCAAUAUUACGGGGA | -1.74 ± 0.17 | -1.55 ± 0.21
GCUAAGCAAUAUUACGGUUC | -1.72 ± 0.097 | -0.788 ± 0.11
GCUAAGCAAUAUUACGGUUG | -2.99 ± 0.092 | -2.42 ± 0.098
GCUAAGCAAUAUUACGUAAA | -0.877 ± 0.068 | -0.32 ± 0.091
GCUAAGCAAUAUUACGUACA | -1.38 ± 0.1 | -0.974 ± 0.13
GCUAAGCAAUAUUACGUACU | -0.353 ± 0.051 | -0.348 ± 0.068
GCUAAGCAAUAUUACGUAGU | -4.17 ± 0.31 | -2.32 ± 0.19
GCUAAGCAAUAUUACGUAUU | -1.16 ± 0.079 | -1.02 ± 0.11
GCUAAGCAAUAUUACGUUUC | -3 ± 0.16 | -0.945 ± 0.12
GCUAAGCAAUAUUACGUUUU | -2 ± 0.093 | -0.945 ± 0.1
GCUCAGCAAUAUUACGCAGA | -3.72 ± 0.2 | -2.88 ± 0.2
GCUCAGCAAUAUUACGCAUG | -1.66 ± 0.1 | -1.49 ± 0.1
GCUCAGCAAUAUUACGCCAU | -3.28 ± 0.48 | -2.26 ± 0.36
GCUCAGCAAUAUUACGCCCU | -1.18 ± 0.19 | 0.764 ± 0.18
GCUCAGCAAUAUUACGCCGG | -2.03 ± 0.15 | -0.855 ± 0.17
GCUCAGCAAUAUUACGCCUC | -1.49 ± 0.2 | 0.48 ± 0.22
GCUCAGCAAUAUUACGCCUG | -2.66 ± 0.26 | -2.42 ± 0.32
GCUCAGCAAUAUUACGCGAA | -0.998 ± 0.11 | -0.98 ± 0.12
GCUCAGCAAUAUUACGCGCG | -1.03 ± 0.071 | -0.194 ± 0.091
GCUCAGCAAUAUUACGGAUC | -0.0202 ± 0.09 | -0.0789 ± 0.11
GCUCAGCAAUAUUACGGAUU | -0.53 ± 0.051 | 0.362 ± 0.075
GCUCAGCAAUAUUACGGCCC | -1.13 ± 0.078 | -0.029 ± 0.1
GCUCAGCAAUAUUACGGCUU | -0.675 ± 0.066 | -0.385 ± 0.071

Sequence | self-splicing fitness (ln) (30 °C) | self-splicing fitness (ln) (37 °C)
GCUCAGCAAUAUUACGGGAU | -1.16 ± 0.097 | -0.195 ± 0.11
GCUCAGCAAUAUUACGGUCC | -0.681 ± 0.065 | 0.158 ± 0.087
GCUCAGCAAUAUUACGUAAG | -0.791 ± 0.043 | -0.374 ± 0.067
GCUCAGCAAUAUUACGUAGU | -0.46 ± 0.059 | -0.522 ± 0.075
GCUCAGCAAUAUUACGUGCC | – | -2.56 ± 0.23
GCUGAGCAAUAUUACGAAAG | -1.75 ± 0.2 | -1.46 ± 0.23
GCUGAGCAAUAUUACGACUA | -1.55 ± 0.22 | -1.72 ± 0.21
GCUGAGCAAUAUUACGAGAU | -3.06 ± 0.34 | -2.09 ± 0.31
GCUGAGCAAUAUUACGAGCG | -0.822 ± 0.23 | -0.795 ± 0.21
GCUGAGCAAUAUUACGAGUA | -2.25 ± 0.31 | -1.72 ± 0.35
GCUGAGCAAUAUUACGAUAC | -1.15 ± 0.35 | 0.491 ± 0.22
GCUGAGCAAUAUUACGAUCC | -1.34 ± 0.15 | 0.743 ± 0.24
GCUGAGCAAUAUUACGCAUC | -1.72 ± 0.26 | -0.374 ± 0.33
GCUGAGCAAUAUUACGCAUU | -2.67 ± 0.13 | -1.63 ± 0.2
GCUGAGCAAUAUUACGCCUG | -1.28 ± 0.23 | –
GCUGAGCAAUAUUACGCGUG | -1.54 ± 0.11 | -0.878 ± 0.13
GCUGAGCAAUAUUACGCUCG | -2.7 ± 0.36 | -0.729 ± 0.26
GCUGAGCAAUAUUACGGAAC | -2.25 ± 0.3 | -0.857 ± 0.3
GCUGAGCAAUAUUACGGACG | -0.688 ± 0.1 | -0.674 ± 0.11
GCUGAGCAAUAUUACGGACU | -2.6 ± 0.36 | -1.36 ± 0.24
GCUGAGCAAUAUUACGGUAA | -3.07 ± 0.29 | -2.44 ± 0.23
GCUGAGCAAUAUUACGGUAU | -2.63 ± 0.2 | -2.41 ± 0.2
GCUGAGCAAUAUUACGGUCC | -2.99 ± 0.28 | -0.889 ± 0.26
GCUGAGCAAUAUUACGGUCG | -2.59 ± 0.17 | -2.24 ± 0.22

Sequence | self-splicing fitness (ln) (30 °C) | self-splicing fitness (ln) (37 °C)
GCUGAGCAAUAUUACGGUUA | -1.74 ± 0.14 | -0.208 ± 0.1
GCUGAGCAAUAUUACGUAUA | -3.69 ± 0.26 | -2.22 ± 0.29
GCUGAGCAAUAUUACGUCAC | -2.4 ± 0.37 | -1.66 ± 0.36
GCUGAGCAAUAUUACGUGUU | -3.4 ± 0.2 | -2.37 ± 0.21
GCUGAGCAAUAUUACGUUCC | -1.48 ± 0.2 | -1.84 ± 0.35
GCUUAGCAAUAUUACGAAUA | -2.05 ± 0.25 | -0.645 ± 0.18
GCUUAGCAAUAUUACGAAUG | -1.79 ± 0.1 | -1.33 ± 0.13
GCUUAGCAAUAUUACGAGAU | -1.36 ± 0.14 | -1.02 ± 0.12
GCUUAGCAAUAUUACGAUCC | -0.0566 ± 0.1 | 0.226 ± 0.13
GCUUAGCAAUAUUACGCACC | -0.796 ± 0.13 | 0.115 ± 0.16
GCUUAGCAAUAUUACGCUGU | -2.25 ± 0.18 | -1.25 ± 0.18
GCUUAGCAAUAUUACGGAUG | -1.71 ± 0.14 | -1.05 ± 0.13
GCUUAGCAAUAUUACGGAUU | -1.15 ± 0.1 | -0.911 ± 0.11
GCUUAGCAAUAUUACGGCGU | -0.354 ± 0.1 | -0.748 ± 0.11
GCUUAGCAAUAUUACGGGCG | -1.44 ± 0.082 | -0.621 ± 0.098
GCUUAGCAAUAUUACGGUUG | -3.95 ± 0.18 | -1.91 ± 0.12
GCUUAGCAAUAUUACGUACC | -0.204 ± 0.2 | 1.1 ± 0.21
GCUUAGCAAUAUUACGUAUC | -1.32 ± 0.083 | 0.415 ± 0.093
GCUUAGCAAUAUUACGUCAG | -2.36 ± 0.22 | –
GCUUAGCAAUAUUACGUGAG | -1.45 ± 0.07 | -1.2 ± 0.071
GCUUAGCAAUAUUACGUGCG | -1.23 ± 0.09 | -0.6 ± 0.12
GCUUAGCAAUAUUACGUGGG | -1.53 ± 0.093 | -1.72 ± 0.1
GCUUAGCAAUAUUACGUGGU | -2.81 ± 0.15 | -1.93 ± 0.16
GCUUAGCAAUAUUACGUUCA | -1.01 ± 0.15 | -1.21 ± 0.17

Sequence | self-splicing fitness (ln) (30 °C) | self-splicing fitness (ln) (37 °C)
GCUUAGCAAUAUUACGUUGC | -2.46 ± 0.15 | -0.535 ± 0.12
GGAAAGCAAUAUUACGAAUA | -2.36 ± 0.22 | -1.19 ± 0.19
GGAAAGCAAUAUUACGAAUG | -3.53 ± 0.29 | -0.816 ± 0.25
GGAAAGCAAUAUUACGACAC | -0.204 ± 0.15 | -0.206 ± 0.2
GGAAAGCAAUAUUACGAUAA | -1.32 ± 0.14 | -0.198 ± 0.16
GGAAAGCAAUAUUACGAUUG | -3.56 ± 0.28 | -1.82 ± 0.23
GGAAAGCAAUAUUACGCACC | -1.43 ± 0.21 | –
GGAAAGCAAUAUUACGCACG | -1.16 ± 0.19 | 0.0479 ± 0.17
GGAAAGCAAUAUUACGCACU | -1.35 ± 0.22 | -1.57 ± 0.3
GGAAAGCAAUAUUACGCAGC | -2.07 ± 0.22 | -1.53 ± 0.23
GGAAAGCAAUAUUACGCGCA | -0.291 ± 0.16 | -0.139 ± 0.17
GGAAAGCAAUAUUACGGAGG | -3.5 ± 0.24 | -2.31 ± 0.21
GGAAAGCAAUAUUACGGGGA | -2.87 ± 0.15 | -2.9 ± 0.26
GGAAAGCAAUAUUACGGGGC | -3.54 ± 0.28 | -0.864 ± 0.21
GGAAAGCAAUAUUACGGGUA | -1.86 ± 0.17 | -1.32 ± 0.15
GGAAAGCAAUAUUACGGUGA | -1.01 ± 0.15 | -0.6 ± 0.16
GGAAAGCAAUAUUACGGUGG | -1.84 ± 0.16 | -1.53 ± 0.16
GGAAAGCAAUAUUACGUAGC | -2.63 ± 0.22 | -2.34 ± 0.23
GGAAAGCAAUAUUACGUCGU | -0.732 ± 0.093 | -0.254 ± 0.12
GGAAAGCAAUAUUACGUUUC | -3.04 ± 0.21 | -2.5 ± 0.28
GGAAAGCAAUAUUACGUUUU | -3.05 ± 0.14 | -2.18 ± 0.18
GGACAGCAAUAUUACGACGC | -0.126 ± 0.065 | 0.658 ± 0.11
GGACAGCAAUAUUACGACGU | -0.177 ± 0.06 | 0.587 ± 0.075
GGACAGCAAUAUUACGAGUC | -4.31 ± 0.2 | -2.75 ± 0.15
